The source of these data is US20260015418A1 (ABL BIO, published 2026).

Test [1] addresses T1, human ROR1 protein (ROR1-His; Sino Biological, Catalog #13968-H08H) (human, UniProt Q01973 30-406).
T1 construct: extracellular domain; Bought protein; also called human recombinant ROR1 protein
As to the kind of experiment: SACE ELISA on human ROR1-His. The method, then: (§1) The binding affinity of the anti-ROR1 antibody-antigen was evaluated using an ELISA-based solution binding assay. Specifically, 96-well microtiter plates (Nunc-Immuno Plates, NUNC) were coated with ROR1 protein (ROR1-His; sino biological, Catalog #13968-H08H) at a concentration of 1 μg/ml in PBS solution at 4° C. for 16 hours, and non-specific binding sites were blocked with 1% (v/v) BSA (bovine serum albumin) for 2 hours.
(§2) Subsequently, on the 96-well microtiter plates, anti-ROR1 antibodies at concentrations stated in FIGS. 1a to 1c were added to the microtiter plates, and their binding capabilities were analyzed by ELISA as follows. Specifically, after incubating at 37° C. for 2 hours, the plates were washed five times with PBS containing 0.05% (v/v) Tween 20, then the HRP-conjugated Fab polyclonal antibody reagent (Pierce, Catalog #31414) was diluted at a 1:30,000 ratio and added to the washed microtiter plates, then reacted for 1 hour at 37° C., then detected the bound anti-ROR1 antibodies. After reaction, the color was developed using TMB (tetramethylbenzidine, Sigma, T0440). The enzymatic reaction was stopped with 0.5 mol/L sulfuric acid, and the absorbance was read at 450 nm and 650 nm using a microplate reader (Molecular Devices). […]

Test [2] concerns the target T1, human ROR1 protein (ROR1-His; Sino …). As to the kind of experiment: ELISA, plate coated with ROR1-His (1 ug/ml), bound antibody detected with HRP-conjugated anti-Fab polyclonal antibody, OD at 450 nm; lower graph and table. The method, then: as §1
(§3) Subsequently, on the 96-well microtiter plates, anti-ROR1 antibodies at concentrations stated in FIGS. 1a to 1c were added to the microtiter plates, and their binding capabilities were analyzed by ELISA as follows. Specifically, after incubating at 37° C. for 2 hours, the plates were washed five times with PBS containing 0.05% (v/v) Tween 20, then the HRP-conjugated Fab polyclonal antibody reagent (Pierce, Catalog #31414) was diluted at a 1:30,000 ratio and added to the washed microtiter plates, then reacted for 1 hour at 37° C., then detected the bound anti-ROR1 antibodies. After reaction, the color was developed using TMB (tetramethylbenzidine, Sigma, T0440). The enzymatic reaction was stopped with 0.5 mol/L sulfuric acid, and the absorbance was read at 450 nm and 650 nm using a microplate reader (Molecular Devices).
For orientation: ELISA stands for enzyme-linked immunosorbent assay.

For test [3] the target is unchanged. As to the kind of experiment: ELISA, plate coated with ROR1-His (1 ug/ml), bound antibody detected with HRP-conjugated anti-Fab polyclonal antibody, OD at 450 nm; upper graph and table. The procedure: as §1, §3
Test [4] has the same target. Kind of test: SACE ELISA on human ROR1-His; antibody stored 2 weeks at 4°C; BA6 IgG (WT), stored at 4° C. The procedure: as §1, §2
For test [5] the target is unchanged. As to the kind of experiment: ELISA, plate coated with ROR1-His (1 ug/ml), bound antibody detected with HRP-conjugated anti-Fab polyclonal antibody, OD at 450 nm. The method, then: as §1, §3
For test [6] the target is unchanged. Kind of test: ELISA, plate coated with ROR1-His (1 ug/ml), bound antibody detected with HRP-conjugated anti-Fab polyclonal antibody, OD at 450 nm; upper graph and table. The method, then:
as §1, §3
This is another data set of the same source.

The target is the same in test [7]. Kind of test: ELISA, plate coated with ROR1-His (1 ug/ml), bound antibody detected with HRP-conjugated anti-Fab polyclonal antibody, OD at 450 nm; lower graph and table. The procedure: as §1, §3
The source holds these as a separate data set.

Test [8] shares this target. Kind of test: SACE ELISA on human ROR1-His; antibody stored 2 weeks at 37°C. The method, then: as §1, §2
The target of test [9] is T2, human ROR1 on cells (NCI-N87, CHOK1-hROR1, AGS, CHO-huROR1-huB7-H3) (human, UniProt Q01973 30-937).
T2 construct: whole, on cells; also called cell surface ROR1
As to the kind of experiment: flow cytometry on CHO-huROR1-huB7-H3 cells, FITC anti-human IgG, MFI over secondary antibody only. The source says: To evaluate the cell-binding ability of the anti-ROR1/B7-H3 bispecific antibody, cells expressing both ROR1 and B7-H3 were used to compare the cell-binding ability of the bispecific antibody with that of the monospecific antibodies.
As a cell line for the comparison of cell-binding ability, CHO-huROR1-huB7-H3 cell line (obtained by transfecting the ROR1-CHO recombinant cell line (BPS Bioscience) with the human B7-H3 gene (Origene) and selecting for the desired gene-inserted single cells using G418), which stably transfected the human ROR1 and human B7-H3 gene to artificially overexpress both human ROR1 and human B7-H3 proteins were used, and analysis was performed using a flow cytometer (LSRFortessa X-20, BD Biosciences). Specifically, after dissociating and washing the overexpressing cell line with PBS, the cell number was counted, and the cells were seeded at a density of 2×10⁵ cells per well into a V-bottom 96-well plate (96 Well Plate-RV, Bioneer, 910D09). Antibodies diluted 4-fold starting from 100 nM in 1% BSA solution were added at 100 μL per well to the centrifuged cells and incubated at 4° C. for 1 hour. […] After the reaction, the cells were washed twice with the same buffer, resuspended in 100 μL of PBS, and analyzed using a FACS instrument. A total of 10,000 cells were detected per measurement, and the data was analyzed using FlowJo software. […]
In general terms: A flow cytometer gives signals particle by particle.

Test [10] concerns the target T1, human ROR1 protein (ROR1-His; Sino …). As to the kind of experiment: SACE ELISA on human ROR1-His; antibody stored 2 weeks at 4°C. The method, then: as §1, §2

Several values for one entry are separate records, joined by “and”; a condition that tells them apart may be missing. Equal values may be shown once.

B1: BA6 antibody (WT) (antibody, V domains shown)
VH: EVQLLESGGGLVQPGGSLRLSCAASGFTFSNYDMSWVRQAPGKGLEWVSAIYHSGSSKYYADSVKGRFTISRDNSKNTLYLQMNSLRAEDTAVYYCARGGNGAWDTGFDYWGQGTLVTVSS
VL: QSVLTQPPSASGTPGQRVTISCSGSSSNIGSNDVSWYQQLPGTAPKLLIYYDNNRPSGVPDRFSGSKSGTSASLAISGLRSEDEADYYCGAWDDSLSGYVFGGGTKLTVL
notes: Anti-ROR1 antibody from WO2019-225992 A1, said to be based on IgG1; only the variable domains are tied to the monospecific IgG; also called BA6 IgG (WT); parental clone
On to B1, for which, in [1], the “Ratio (EC50, 4°C sample against 37°C sample)” value was determined as 83.1%. In addition, the EC50 in test [2] came out at 293 pM; in test [3], 1000 pM; in test [4], 217 pM; in [5] it was 293 pM; in test [6], 707 pM; in test [7] it was 215 pM. Moreover, in test [8], the 50% effective concentration (EC50) was determined as 261 pM.

B2: BA6M11 anti-ROR1 antibody (IgG) (antibody, V domains shown)
VH: EVQLLESGGGLVQPGGSLRLSCAASGFTFSNYDMSWVRQAPGKGLEWVSAIYHSGSSKYYADSVKGRFTISRDNSKNTLYLQMNSLRAEDTAVYYCARGGSGAWDTGFDYWGQGTLVTVSS
VL: QSVLTQPPSASGTPGQRVTISCSGSSSNIGSNDVSWYQQLPGTAPKLLIYYENNRPSGVPDRFSGSKSGTSASLAISGLRSEDEADYYCGAWDDSLSGYVFGGGTKLTVL
notes: IgG form; also called BA6 IgG (M11); double mutant D51E (LC)+N97S (HC)
Turning to B2, the “Ratio (EC50, 4°C sample against 37°C sample)” value in test [1] stood at 129%. Further, the “EC50 (read off the curve)” value in test [9] is about 700 pM. Also, the EC50 in [7] is 144 pM and 133 pM; in test [10] it was 166 pM; in test [8], 129 pM.

By EC50 is commonly meant the concentration needed to bring the measured effect to its halfway point. Read a high EC50 as weaker potency. The EC50 (read off the curve) is the concentration giving half of the maximal effect. Low readings indicate an effect from little substance, high ones a need for much substance.
